Source: patent publication US20220064312A1 (SHIONOGI, published 2022)
Positions count from the first letter of the chain named. Numbers in names are those of the source. Read-outs that look alike come from different tables or passages of the source.

B1: h10A11 (IGKV3-20/IGHV3-15 T94R) (antibody, V domains shown)
VH: EVQLVESGGALVKPGGSLRLSCAASGFTFSTYALYWVRQAPGKGLEWVGRIRSKSNNYATYYADSVKDRFTISRDDSKNTLYLQMNSLKTEDTAVYYCTRARFYYSDYGYAMDYWGQGTLVTVSS
VL: EIVLTQSPGTLSLSPGERATLSCRSSKSLLHSNGNTYLYWYQQKPGQAPRLLIYRMSNLASGIPDRFSGSGSGTDFTLTISRLEPEDFAVYYCMQHLEYPLTFGQGTKVEIKR
B2: h10A11 (IGKV2-40/IGHV3-15 T94R) (antibody, V domains shown)
VH: B1 VH
VL: DIVMTQTPLSLPVTPGEPASISCRSSKSLLHSNGNTYLYWYLQKPGQSPQLLIYRMSNLASGVPDRFSGSGSGTDFTLKISRVEAEDVGVYYCMQHLEYPLTFGQGTKLEIKR
B3: h10A11 (IGKV1-39/IGHV3-73) (antibody, V domains shown)
VH: B1 VH with A10G, K13Q, R19K, T28A, S30N, P41S, L81A
VL: DIQMTQSPSSLSASVGDRVTITCRSSKSLLHSNGNTYLYWYQQKPGKAPKLLIYRMSNLASGVPSRFSGSGSGTDFTLTISSLQPEDFATYYCMQHLEYPLTFGQGTKLEIKR
B4: h10A11 (IGKV2-28/IGHV3-73) (antibody, V domains shown)
VH: B1 VH with A10G, K13Q, R19K, T28A, S30N, P41S, L81A
VL: B2 VL with T7S, L109V
B5: h10A11 IGKV4-1 N53Q, G29R/IGHV3-15 T94R (antibody, V domains shown)
VH: B1 VH
VL: DIVMTQSPDSLAVSLGERATINCRSSKSLLHSNRNTYLYWYQQKPGQPPKLLIYRMSQLASGVPDRFSGSGSGTDFTLTISSLQAEDVAVYYCMQHLEYPLTFGQGTKLEIKR
B6: h10A11 (IGKV1-16/IGHV3-15 T94R) (antibody, V domains shown)
VH: B1 VH
VL: B3 VL with Y41F, L51S
B7: h10A11 (IGKV1-39/IGHV3-15 T94R) (antibody, V domains shown)
VH: B1 VH
VL: B3 VL
B8: h10A11 (IGKV2-40/IGHV3-73) (antibody, V domains shown)
VH: B1 VH with A10G, K13Q, R19K, T28A, S30N, P41S, L81A
VL: B2 VL
B9: h10A11 IGKV3-20 N53Q, N28K/IGHV3-15 T94R (antibody, V domains shown)
VH: B1 VH
VL: B1 VL with N33K, N58Q
B10: h10A11 IGKV3-20 N53Q, G29L/IGHV3-15 T94R (antibody, V domains shown)
VH: B1 VH
VL: B1 VL with G34L, N58Q
B11: 2-7B (antibody, V domains shown)
VH: EVQLVESDGGLVQPGRSLKLSCAASGFTFSDYYMAWVRQAPTKGLEWVATITYDVYSTYYRDSVKGRFTISRDNAKSTLYLQMDSLRSEDTATYYCARHGGDGYNSGNWFAYWGQGTLVTVSS
VL: DIVLTQSPALAVSLGQRATISCRASQSVSISRYNIMHWYQQKPGQQPKLLIYRASNLASGIPARFSGSGSGTDFTLTINPVQADDIATYYCQQSRESPPTFGGGTKLELKR

Experiments:
Assay in all cases: cell-based or functional assay
[1] = target: T1, human CCR8 (human, UniProt P51685 1-355)
[2] = target: T1, human CCR8; remark: listed apart in the source
[3] = target: T1, human CCR8; remark: listed apart in the source

T1 sequence (P51685 whole entry): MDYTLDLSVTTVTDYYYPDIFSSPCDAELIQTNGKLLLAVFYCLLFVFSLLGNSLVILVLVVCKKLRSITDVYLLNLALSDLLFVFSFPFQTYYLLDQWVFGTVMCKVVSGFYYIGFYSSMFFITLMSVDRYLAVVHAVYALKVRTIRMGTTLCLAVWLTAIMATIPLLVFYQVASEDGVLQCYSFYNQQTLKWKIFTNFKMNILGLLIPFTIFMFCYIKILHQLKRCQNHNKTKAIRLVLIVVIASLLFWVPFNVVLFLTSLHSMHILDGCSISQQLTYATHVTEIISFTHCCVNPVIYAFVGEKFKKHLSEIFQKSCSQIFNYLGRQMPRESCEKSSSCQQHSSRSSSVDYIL

| Binder | IC50 (nM), Ca2+ influx by 200 nM hCCL1 [1] [nM] | further results |
| --- | --- | --- |
| B1 | 0.16 | – |
| B2 | 0.3 | – |
| B3 | 0.16 | – |
| B4 | 0.2 | – |
| B5 | – | IC50 (nM), Ca2+ influx by 200 nM hCCL1 [2]: 0.12 nM |
| B6 | 0.7 | – |
| B7 | 0.2 | – |
| B8 | 0.21 | – |
| B9 | – | IC50 (nM), Ca2+ influx by 200 nM hCCL1 [2]: 0.29 nM |
| B10 | – | IC50 (nM), Ca2+ influx by 200 nM hCCL1 [2]: 0.21 nM |
| B11 | – | IC50 (nM), Ca2+ influx by 200 nM hCCL1 [3]: 0.23 nM |
